From patent US20240261333A1 (published 2024)

Tests used:
Test in all cases: co-IP with anti-FLAG, N-FLAG B3GNT2, mass spectrometry
GEMIN4 = molecular target: T1, GEMIN4 (human, UniProt P57678 1-1058)
T1 construct: also called NP_056536.2 (+2)
T1 sequence (looked up): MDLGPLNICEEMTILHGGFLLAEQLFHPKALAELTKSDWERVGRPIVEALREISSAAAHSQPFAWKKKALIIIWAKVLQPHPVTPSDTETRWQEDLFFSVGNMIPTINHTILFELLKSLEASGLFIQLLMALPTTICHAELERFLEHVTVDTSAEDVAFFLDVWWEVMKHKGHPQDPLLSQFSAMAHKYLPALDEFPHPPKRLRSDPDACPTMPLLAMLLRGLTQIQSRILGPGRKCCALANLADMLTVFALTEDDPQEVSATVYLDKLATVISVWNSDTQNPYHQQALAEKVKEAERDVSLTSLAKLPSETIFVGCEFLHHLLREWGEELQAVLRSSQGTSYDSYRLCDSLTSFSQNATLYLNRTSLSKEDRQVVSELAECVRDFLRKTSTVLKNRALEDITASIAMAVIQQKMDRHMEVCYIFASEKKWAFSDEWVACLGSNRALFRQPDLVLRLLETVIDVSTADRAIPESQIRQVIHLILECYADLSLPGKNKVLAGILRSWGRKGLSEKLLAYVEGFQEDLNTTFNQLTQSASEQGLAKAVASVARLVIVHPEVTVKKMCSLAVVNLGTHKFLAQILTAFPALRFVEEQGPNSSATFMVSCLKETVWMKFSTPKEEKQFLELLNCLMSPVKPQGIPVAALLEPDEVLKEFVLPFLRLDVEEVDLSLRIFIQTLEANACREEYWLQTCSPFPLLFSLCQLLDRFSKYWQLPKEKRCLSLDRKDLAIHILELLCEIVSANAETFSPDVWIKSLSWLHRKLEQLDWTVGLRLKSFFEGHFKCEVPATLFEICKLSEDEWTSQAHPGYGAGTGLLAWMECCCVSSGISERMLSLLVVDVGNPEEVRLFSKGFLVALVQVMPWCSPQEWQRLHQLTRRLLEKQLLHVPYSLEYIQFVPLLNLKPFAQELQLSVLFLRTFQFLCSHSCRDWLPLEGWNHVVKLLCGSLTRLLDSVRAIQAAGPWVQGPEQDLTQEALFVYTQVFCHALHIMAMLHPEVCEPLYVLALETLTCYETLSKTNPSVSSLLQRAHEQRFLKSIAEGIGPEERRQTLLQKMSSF

FLG = molecular target: T2, FLG (human, UniProt P20930 1-4061, limits assumed)
T2 construct: also called NP_002007.1
T2 sequence (P20930 whole entry): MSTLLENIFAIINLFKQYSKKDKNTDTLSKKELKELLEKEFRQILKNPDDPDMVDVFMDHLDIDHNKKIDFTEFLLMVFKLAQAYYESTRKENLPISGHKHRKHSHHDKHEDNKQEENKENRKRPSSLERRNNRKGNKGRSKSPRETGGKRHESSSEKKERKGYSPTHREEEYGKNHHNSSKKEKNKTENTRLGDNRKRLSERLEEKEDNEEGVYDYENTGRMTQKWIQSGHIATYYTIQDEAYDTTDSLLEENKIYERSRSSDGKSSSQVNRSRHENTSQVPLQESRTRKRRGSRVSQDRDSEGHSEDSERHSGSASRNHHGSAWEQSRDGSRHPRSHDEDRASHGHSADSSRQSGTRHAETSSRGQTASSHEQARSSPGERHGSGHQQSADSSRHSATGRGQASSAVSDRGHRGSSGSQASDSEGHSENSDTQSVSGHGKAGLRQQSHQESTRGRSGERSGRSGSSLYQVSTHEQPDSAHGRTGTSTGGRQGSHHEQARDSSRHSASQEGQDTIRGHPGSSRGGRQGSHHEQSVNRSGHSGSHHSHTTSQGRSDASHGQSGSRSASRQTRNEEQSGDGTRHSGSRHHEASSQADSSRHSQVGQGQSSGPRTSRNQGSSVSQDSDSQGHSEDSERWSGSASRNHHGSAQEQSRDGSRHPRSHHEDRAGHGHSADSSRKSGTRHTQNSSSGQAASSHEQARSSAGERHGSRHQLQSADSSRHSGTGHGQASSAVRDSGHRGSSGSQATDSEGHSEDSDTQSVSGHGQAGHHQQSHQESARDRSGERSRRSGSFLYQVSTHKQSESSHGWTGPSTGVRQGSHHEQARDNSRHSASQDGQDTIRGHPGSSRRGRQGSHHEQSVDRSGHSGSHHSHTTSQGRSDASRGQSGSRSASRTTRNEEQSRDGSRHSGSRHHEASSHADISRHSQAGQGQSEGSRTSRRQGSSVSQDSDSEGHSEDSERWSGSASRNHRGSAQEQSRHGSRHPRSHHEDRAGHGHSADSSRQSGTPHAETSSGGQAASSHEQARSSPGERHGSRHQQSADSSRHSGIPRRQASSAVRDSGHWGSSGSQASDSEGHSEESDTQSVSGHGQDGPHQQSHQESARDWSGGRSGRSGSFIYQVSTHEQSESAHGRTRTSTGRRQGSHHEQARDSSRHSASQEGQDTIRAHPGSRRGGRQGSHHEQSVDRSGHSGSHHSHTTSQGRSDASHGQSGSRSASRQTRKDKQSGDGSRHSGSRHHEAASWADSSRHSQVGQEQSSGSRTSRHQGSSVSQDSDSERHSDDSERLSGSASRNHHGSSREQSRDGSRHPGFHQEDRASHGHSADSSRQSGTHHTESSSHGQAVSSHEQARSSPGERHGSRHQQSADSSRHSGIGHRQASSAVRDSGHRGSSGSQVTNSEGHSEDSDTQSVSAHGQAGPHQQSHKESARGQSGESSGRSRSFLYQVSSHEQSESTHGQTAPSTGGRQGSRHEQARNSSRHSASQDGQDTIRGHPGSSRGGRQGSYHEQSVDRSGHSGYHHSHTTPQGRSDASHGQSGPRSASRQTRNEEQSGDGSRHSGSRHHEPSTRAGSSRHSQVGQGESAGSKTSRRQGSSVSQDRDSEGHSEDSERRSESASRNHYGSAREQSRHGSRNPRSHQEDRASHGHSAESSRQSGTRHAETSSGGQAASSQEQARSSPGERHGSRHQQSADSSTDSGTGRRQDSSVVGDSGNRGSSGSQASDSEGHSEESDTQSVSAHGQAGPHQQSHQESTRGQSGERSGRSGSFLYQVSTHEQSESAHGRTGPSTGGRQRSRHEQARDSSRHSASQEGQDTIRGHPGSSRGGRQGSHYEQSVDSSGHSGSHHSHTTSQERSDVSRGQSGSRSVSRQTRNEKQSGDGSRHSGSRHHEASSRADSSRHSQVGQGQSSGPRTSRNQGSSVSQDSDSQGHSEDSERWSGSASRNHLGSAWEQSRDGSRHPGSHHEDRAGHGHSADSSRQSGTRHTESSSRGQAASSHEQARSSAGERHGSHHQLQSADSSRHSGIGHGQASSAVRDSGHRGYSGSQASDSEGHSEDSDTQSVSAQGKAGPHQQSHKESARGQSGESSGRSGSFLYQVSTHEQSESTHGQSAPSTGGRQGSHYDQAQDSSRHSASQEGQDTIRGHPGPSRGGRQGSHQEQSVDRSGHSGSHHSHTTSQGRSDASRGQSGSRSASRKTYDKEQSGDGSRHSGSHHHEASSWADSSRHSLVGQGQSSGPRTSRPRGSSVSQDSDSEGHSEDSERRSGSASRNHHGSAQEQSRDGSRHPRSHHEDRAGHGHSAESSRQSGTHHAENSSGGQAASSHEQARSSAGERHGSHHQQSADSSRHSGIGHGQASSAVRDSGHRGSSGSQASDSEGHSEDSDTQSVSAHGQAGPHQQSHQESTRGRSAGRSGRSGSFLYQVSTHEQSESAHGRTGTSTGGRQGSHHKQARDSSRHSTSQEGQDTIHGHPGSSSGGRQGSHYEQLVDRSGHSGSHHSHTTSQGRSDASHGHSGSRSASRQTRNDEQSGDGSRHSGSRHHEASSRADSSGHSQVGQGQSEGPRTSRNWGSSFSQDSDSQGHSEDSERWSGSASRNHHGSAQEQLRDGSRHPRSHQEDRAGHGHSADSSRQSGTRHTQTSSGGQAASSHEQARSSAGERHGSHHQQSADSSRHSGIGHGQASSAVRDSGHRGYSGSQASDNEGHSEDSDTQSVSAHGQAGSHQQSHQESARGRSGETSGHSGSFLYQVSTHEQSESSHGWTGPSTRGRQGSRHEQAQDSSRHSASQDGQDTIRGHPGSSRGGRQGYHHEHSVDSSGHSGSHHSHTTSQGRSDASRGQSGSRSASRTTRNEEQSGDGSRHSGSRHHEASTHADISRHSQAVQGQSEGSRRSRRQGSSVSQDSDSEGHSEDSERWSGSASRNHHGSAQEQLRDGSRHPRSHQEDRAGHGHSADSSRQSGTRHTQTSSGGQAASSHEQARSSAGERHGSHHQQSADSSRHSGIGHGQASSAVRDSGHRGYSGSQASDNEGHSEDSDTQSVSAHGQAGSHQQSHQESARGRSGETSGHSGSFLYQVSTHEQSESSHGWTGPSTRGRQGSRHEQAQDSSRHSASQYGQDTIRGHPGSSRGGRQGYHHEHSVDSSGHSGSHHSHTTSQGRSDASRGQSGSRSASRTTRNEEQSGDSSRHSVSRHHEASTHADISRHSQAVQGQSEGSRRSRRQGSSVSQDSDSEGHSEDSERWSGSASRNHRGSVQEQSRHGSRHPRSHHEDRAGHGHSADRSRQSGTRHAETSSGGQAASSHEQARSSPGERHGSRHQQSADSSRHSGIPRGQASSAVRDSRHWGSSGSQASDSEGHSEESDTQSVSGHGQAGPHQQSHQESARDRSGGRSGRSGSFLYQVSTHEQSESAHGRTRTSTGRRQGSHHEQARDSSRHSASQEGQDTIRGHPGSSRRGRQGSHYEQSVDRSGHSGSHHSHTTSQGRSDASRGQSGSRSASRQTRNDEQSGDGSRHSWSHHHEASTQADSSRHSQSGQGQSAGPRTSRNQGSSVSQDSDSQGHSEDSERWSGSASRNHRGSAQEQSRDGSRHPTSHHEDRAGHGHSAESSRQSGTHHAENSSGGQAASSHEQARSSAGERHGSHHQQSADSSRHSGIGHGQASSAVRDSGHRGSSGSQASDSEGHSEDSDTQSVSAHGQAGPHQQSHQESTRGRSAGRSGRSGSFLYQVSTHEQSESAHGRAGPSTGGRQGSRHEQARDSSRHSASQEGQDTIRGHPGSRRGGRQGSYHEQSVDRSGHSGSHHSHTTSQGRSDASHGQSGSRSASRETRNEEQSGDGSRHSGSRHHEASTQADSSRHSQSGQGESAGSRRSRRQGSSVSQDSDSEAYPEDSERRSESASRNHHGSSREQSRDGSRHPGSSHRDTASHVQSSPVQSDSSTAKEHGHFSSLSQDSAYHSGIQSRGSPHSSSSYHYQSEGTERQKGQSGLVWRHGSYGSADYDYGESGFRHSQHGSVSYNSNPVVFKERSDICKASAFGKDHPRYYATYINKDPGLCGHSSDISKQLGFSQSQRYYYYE

IMMT = molecular target: T3, IMMT (human, UniProt Q16891-4 34-757, limits assumed)
T3 construct: also called NP_001093639.1 (+3)
T3 sequence (looked up): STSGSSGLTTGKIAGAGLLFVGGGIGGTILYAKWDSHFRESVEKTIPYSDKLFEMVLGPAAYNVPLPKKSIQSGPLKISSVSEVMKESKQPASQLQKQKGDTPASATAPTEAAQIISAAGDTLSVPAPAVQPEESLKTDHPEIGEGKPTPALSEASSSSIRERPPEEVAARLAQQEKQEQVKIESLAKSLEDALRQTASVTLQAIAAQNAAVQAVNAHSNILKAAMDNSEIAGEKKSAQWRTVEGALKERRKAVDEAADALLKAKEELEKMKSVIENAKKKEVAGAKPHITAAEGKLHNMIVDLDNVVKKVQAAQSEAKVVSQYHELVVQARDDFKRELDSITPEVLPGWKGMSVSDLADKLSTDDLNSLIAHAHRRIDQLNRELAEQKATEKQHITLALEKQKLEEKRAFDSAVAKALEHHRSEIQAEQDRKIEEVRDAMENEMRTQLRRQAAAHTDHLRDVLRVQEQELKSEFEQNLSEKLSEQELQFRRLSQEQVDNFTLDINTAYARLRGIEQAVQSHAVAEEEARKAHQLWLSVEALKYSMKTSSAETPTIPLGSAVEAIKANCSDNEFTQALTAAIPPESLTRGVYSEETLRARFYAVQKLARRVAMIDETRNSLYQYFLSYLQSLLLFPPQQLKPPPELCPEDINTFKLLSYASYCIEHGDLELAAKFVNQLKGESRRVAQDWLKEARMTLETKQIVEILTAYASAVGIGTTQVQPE

B1: N-terminal FLAG tagged B3GNT2 (enzyme, human, UniProt Q9NY97 1-397, looked up)
chain: MSVGRRRIKLLGILMMANVFIYFIMEVSKSSSQEKNGKGEVIIPKEKFWKISTPPEAYWNREQEKLNRQYNPILSMLTNQTGEAGRLSNISHLNYCEPDLRVTSVVTGFNNLPDRFKDFLLYLRCRNYSLLIDQPDKCAKKPFLLLAIKSLTPHFARRQAIRESWGQESNAGNQTVVRVFLLGQTPPEDNHPDLSDMLKFESEKHQDILMWNYRDTFFNLSLKEVLFLRWVSTSCPDTEFVFKGDDDVFVNTHHILNYLNSLSKTKAKDLFIGDVIHNAGPHRDKKLKYYIPEVVYSGLYPPYAGGGGFLYSGHLALRLYHITDQVHLYPIDDVYTGMCLQKLGLVPEKHKGFRTFDIEEKNKNNICSYVDLMLVHSRKPQEMIDIWSQLQSAHLKC
notes: FLAG-tagged ORF overexpressed in cells; pulled down from lysate with mouse anti-FLAG; also called N-FLAG B3GNT2; N-term FLAG; not shown: N-terminal FLAG tag
Question: What does the source list for B1?
Answer: co-IP mass spectrometry count (GEMIN4): 0; co-IP mass spectrometry count (FLG): 29; co-IP mass spectrometry count (IMMT): 23
